# From patent US20260265354A1 (JIANGSU MABWELL HEALTH PHARMACEUTICAL R AND D, published 2026)
# T1: Nectin-like-3 (UniProt Q8N3J6 25-367, limits assumed)
# T1 construct: Bought recombinant protein; also called CADM2; IgSF4D
# T1 sequence (looked up): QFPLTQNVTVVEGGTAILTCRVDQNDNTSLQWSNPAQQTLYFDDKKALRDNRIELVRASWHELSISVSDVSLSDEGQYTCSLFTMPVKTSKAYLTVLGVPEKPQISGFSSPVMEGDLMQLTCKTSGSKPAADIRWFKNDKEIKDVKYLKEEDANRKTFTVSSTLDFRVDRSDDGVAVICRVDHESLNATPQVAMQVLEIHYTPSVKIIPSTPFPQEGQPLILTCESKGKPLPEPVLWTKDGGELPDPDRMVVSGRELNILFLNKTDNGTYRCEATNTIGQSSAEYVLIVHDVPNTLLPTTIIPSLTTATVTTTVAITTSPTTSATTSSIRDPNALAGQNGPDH
# T2: recombinant human Nectin-4 protein (human, UniProt Q96NY8 32-349)
# T2 construct: Prepared in-house (Jiangsu Mabwell) by transient transfection of CHO cells; also called PVRL-4; PRR-4
# T2 sequence: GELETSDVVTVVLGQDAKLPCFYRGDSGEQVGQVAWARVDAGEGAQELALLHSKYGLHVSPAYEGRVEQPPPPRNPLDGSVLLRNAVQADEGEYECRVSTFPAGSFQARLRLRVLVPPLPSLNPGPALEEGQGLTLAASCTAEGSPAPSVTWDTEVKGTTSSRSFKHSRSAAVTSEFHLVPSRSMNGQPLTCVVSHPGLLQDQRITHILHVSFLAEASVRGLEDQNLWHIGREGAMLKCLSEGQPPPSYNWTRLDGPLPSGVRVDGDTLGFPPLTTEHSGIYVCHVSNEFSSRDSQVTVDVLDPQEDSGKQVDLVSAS
# T3: Nectin-like-2 (UniProt Q9BY67 45-374, limits assumed)
# T3 construct: Bought recombinant protein; also called CADM1; IgSF4
# T3 sequence (looked up): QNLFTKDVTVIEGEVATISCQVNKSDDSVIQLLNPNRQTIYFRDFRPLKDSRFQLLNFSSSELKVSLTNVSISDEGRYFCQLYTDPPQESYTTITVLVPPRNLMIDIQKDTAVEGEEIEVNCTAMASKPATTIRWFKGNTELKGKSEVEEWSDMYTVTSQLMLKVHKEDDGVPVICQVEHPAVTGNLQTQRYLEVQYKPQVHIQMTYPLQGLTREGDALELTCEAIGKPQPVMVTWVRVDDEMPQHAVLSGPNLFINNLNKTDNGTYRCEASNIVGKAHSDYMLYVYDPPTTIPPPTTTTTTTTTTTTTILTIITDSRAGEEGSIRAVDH
# T4: Nectin-2 (UniProt Q92692 32-360, limits assumed)
# T4 construct: Bought recombinant protein; also called CD112; PVRL-2
# T4 sequence (looked up): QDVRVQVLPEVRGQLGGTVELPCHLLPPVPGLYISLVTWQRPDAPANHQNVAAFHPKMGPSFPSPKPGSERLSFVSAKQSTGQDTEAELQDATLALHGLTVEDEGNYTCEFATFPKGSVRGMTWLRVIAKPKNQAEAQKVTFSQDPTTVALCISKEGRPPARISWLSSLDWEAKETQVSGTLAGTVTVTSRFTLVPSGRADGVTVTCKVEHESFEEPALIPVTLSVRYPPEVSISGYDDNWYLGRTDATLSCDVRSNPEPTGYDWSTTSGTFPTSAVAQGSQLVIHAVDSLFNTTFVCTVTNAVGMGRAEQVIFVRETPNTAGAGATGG
# T5: Nectin-1 (UniProt Q15223 31-334, limits assumed)
# T5 construct: Bought recombinant protein; also called CD111; PVRL-1
# T5 sequence (looked up): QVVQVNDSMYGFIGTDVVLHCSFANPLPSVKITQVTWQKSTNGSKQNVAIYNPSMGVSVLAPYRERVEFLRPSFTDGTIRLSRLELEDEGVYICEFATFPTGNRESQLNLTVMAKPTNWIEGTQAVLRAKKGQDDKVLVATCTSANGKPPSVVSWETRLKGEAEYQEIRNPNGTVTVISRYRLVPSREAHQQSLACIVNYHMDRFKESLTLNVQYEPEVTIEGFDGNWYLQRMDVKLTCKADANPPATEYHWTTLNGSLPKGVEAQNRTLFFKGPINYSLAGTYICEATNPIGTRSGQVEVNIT
# T6: Nectin-like-1 (UniProt Q8N126 25-330, limits assumed)
# T6 construct: Bought recombinant protein; also called CADM3; IgSF4B
# T6 sequence (looked up): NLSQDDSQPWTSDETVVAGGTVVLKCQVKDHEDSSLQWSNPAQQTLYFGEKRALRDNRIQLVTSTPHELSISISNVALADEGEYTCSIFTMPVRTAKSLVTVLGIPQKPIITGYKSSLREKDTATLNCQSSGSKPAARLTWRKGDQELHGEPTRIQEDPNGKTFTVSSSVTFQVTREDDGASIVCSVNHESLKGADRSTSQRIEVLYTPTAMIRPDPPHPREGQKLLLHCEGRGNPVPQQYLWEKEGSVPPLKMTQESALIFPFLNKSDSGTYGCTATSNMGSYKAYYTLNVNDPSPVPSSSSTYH
# Assays:
# Nectin-like-3 = molecular target: T1, Nectin-like-3; assay: ELISA, coated antigen, antibody at 10 ng/ml
# Experimental: (§1) Coating: Nectin-1, Nectin-2, Nectin-3, Nectin-4, Nectin-like-1, Nectin-like-2, Nectin-like-3, Nectin-like-4, and Nectin-like-5 were diluted to 5 μg/ml in coating buffer (carbonate buffer, pH 9.6) respectively. A 96-well plate was coat with 100 μl per well and incubated overnight at 2-8° C.;
# (§2) Sample loading: The plate was taken out, patted dry, and washed twice with 200 μl/well of PBST, then patted dry. The Nectin-4 antibodies prepared in Example 1 (antibody MM11, antibody R012, and antibody R036) were diluted with 1% BSA/PBST to concentrations of 10 μg/ml, 1 μg/ml, 100 ng/ml, and 10 ng/ml, respectively. 1% BSA/PBST solution for dilution was set as a blank control. 100 μl per well was added to the 96-well plate, and incubated at room temperature for 2 hours;
# (§3) Reaction termination and plate reading: 100 μl/well of 1 mol/L H3PO4 was added to terminate the reaction and the plated was read. The absorbances of wells in the plate at 450 nm with 650 nm as reference wavelength were read and recorded as OD_{450 nm-650 nm}.
# [1] = molecular target: T2, recombinant human Nectin-4 protein; assay: ELISA, coated antigen, antibody at 10 ng/ml
# Experimental: as §1, §2, §3
# Nectin-like-2 = molecular target: T3, Nectin-like-2; assay: ELISA, coated antigen, antibody at 10 ng/ml
# Experimental: as §1, §2, §3
# Nectin-2 = molecular target: T4, Nectin-2; assay: ELISA, coated antigen, 0 ng/ml antibody (blank control)
# Experimental: as §1, §2, §3
# [2] = molecular target: T2, recombinant human Nectin-4 protein; assay: as above
# Experimental: as §1, §2, §3
# Nectin-1 = molecular target: T5, Nectin-1; assay: as above
# Experimental: as §1, §2, §3
# Nectin-like-1 = molecular target: T6, Nectin-like-1; assay: as above
# Experimental: as §1, §2, §3
Binder,OD detection value (Nectin-like-3) [OD450 nm-650 nm],OD detection value [1] [OD450 nm-650 nm],OD detection value (Nectin-like-2) [OD450 nm-650 nm],OD detection value (Nectin-2) [OD450 nm-650 nm],OD detection value [2] [OD450 nm-650 nm],OD detection value (Nectin-1) [OD450 nm-650 nm],OD detection value (Nectin-like-1) [OD450 nm-650 nm]
"Antibody R012 (antibody, V domains shown, Rabbit monoclonal antibody from phage display; also called Nectin-4 rabbit monoclonal antibody R012; rabbit antibody R012) VH: SKSVEESGGRLVTPGTPLTLTCTVSGFSLSTYAMSWVRQAPGKGLEYIGIISGRGTTYYASWLKGRFTISKTSTTVDLKITSPTTEDTATYFCARDAGISDVYTGYFNLWGQGTLVTVSS VL: QPVLAQLPSASAALGASAKLTCTLSSAHRTYTIAWYQQQQGEAPRYLMMLKSDGSYTKGTGVPDRFSGSSSGADRYLIISSVQAADEADYYCGADDSGGYVFGGGTQLTVTG",0.009,0.748,0.008,0.009,0.008,0.007,0.008
"Antibody R036 (antibody, V domains shown, Rabbit monoclonal antibody from phage display; also called Nectin-4 rabbit monoclonal antibody R036; rabbit antibody R036) VH: SQSVEESGGRLVTPGTPLTLTCTVSGFSLSSYAMSWVRQAPGKGLEYIGIIGGRGTTYYAIWAKGRFTISKTSTTVDLKITSPTTEDTATYFCARDAGTTYVGTTYVATGYFNLWGQGTLVTVSS VL: QPVLTQPPSASAALGASAKLTCTLSSAHKTYTIAWYQQQQGEAPRYLMILKSDGSYTRGTGVPDRFSGSSSGADRYLIISSVQADDEADYYCGADDSGGYVFGGGTQLTVTG",0.008,0.73,0.007,0.007,0.007,0.007,0.007
"Antibody MM11 (antibody, mouse IgG1, kappa, V domains shown, Mouse monoclonal antibody from hybridoma; also called Nectin-4 mouse monoclonal antibody MM11; mouse antibody MM11) VH: DVQLQESGPGLVKPSQSLSLTCSVTGYSITSNFYWNWIRQFPGNRLEWMGYISYDGSNNYNPSLKNRISISRDTSKNQFFLKLNSVTTEDTATYYCVRADYWGQGTLVTVSA VL: DTVMTQTPLSLPVSLGDQASISCRSSQSLESSDGHAYLNWYLQKPGQSPQLLIYRVSNRFSGVLHRFSGSGSGTDFTLKISRVEAEDLGVYFCLQFTHVPFTFGSGTKLEIKR",0.03,0.58,0.007,0.007,0.008,0.005,0.007
